Source: patent publication US20260070976A1 (Alector, published 2026)

B1: X0 (PA-29) (antibody, V domains shown)
VH: QVQLVQSGAEVKKPGSSVKVSCKASGYNFLNYDVNWVRQAPGQGLEWMGGIIPIFGTANYAQKFQGRVTITADESTSTAYMELSSLRSEDTAVYYCATGVGAGWFDPWGQGTLVTVSS
VL: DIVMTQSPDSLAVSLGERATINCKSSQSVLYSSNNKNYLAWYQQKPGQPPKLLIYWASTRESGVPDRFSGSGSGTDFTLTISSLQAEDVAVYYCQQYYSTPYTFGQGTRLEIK
notes: conditioned media in the HEK293F assays; also called parental X0 (PA-29) antibody; XO (PA-29)
B2: X7 (antibody, human IgG4, V domains shown)
VH: QVQLVQSGAEVKKPGSSVKVSCKASGYNFLNYDVNWVRQAPGQGLEWMGGIIPIFGTANYAQKFQGRVTITADESTSTAYMELSSLRSEDTAVYYCATGVGAGWFDPWGQGTLVTVSS
VL: DIVMTQSPDSLAVSLGERATINCKSSQSVFFDENNKNYLAWYQQKPGQPPKLLIYWASTRESGVPDRFSGSGSGTDFTLTISSLQAEDVAVYYCQQYFEEPYTFGQGTRLEIK
notes: conditioned media in the HEK293F assays
B3: X12 (antibody, human IgG4, V domains shown)
VH: QVQLVQSGAEVKKPGSSVKVSCKASGYNFLHYDVNWVRQAPGQGLEWMGGIIPIFGTANYAQKFQGRVTITADESTSTAYMELSSLRSEDTAVYYCATAVGAGWFDTWGQGTLVTVSS
VL: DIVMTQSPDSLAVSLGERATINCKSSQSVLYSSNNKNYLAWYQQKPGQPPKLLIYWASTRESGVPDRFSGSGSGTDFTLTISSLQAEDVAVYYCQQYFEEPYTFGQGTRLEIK
notes: as for B2
B4: X14 (antibody, human IgG4, V domains shown)
VH: QVQLVQSGAEVKKPGSSVKVSCKASGYNFLHYDVNWVRQAPGQGLEWMGGIIPIFGTANYAQKFQGRVTITADESTSTAYMELSSLRSEDTAVYYCATAVGAGWFDTWGQGTLVTVSS
VL: DIVMTQSPDSLAVSLGERATINCKSSQSVYFSPNNKNYLAWYQQKPGQPPKLLIYWASTRESGVPDRFSGSGSGTDFTLTISSLQAEDVAVYYCQQYFEEPYTFGQGTRLEIK
notes: as for B2
B5: X16 (antibody, human IgG4, V domains shown)
VH: QVQLVQSGAEVKKPGSSVKVSCKASGYNFLHYDVNWVRQAPGQGLEWMGGIIPIFGTANYAQKFQGRVTITADESTSTAYMELSSLRSEDTAVYYCATAVGAGWFDTWGQGTLVTVSS
VL: DIVMTQSPDSLAVSLGERATINCKSSQSVYFDVNNKNYLAWYQQKPGQPPKLLIYWASTRESGVPDRFSGSGSGTDFTLTISSLQAEDVAVYYCQQYFEEPYTFGQGTRLEIK
notes: as for B2
B6: X20 (antibody, human IgG4, V domains shown)
VH: QVQLVQSGAEVKKPGSSVKVSCKASGYNFLHYDVNWVRQAPGQGLEWMGGIIPIFGTANYAQKFQGRVTITADESTSTAYMELSSLRSEDTAVYYCATAVGAGWFDPWGQGTLVTVSS
VL: DIVMTQSPDSLAVSLGERATINCKSSQSVYFSENNKNYLAWYQQKPGQPPKLLIYWASTRESGVPDRFSGSGSGTDFTLTISSLQAEDVAVYYCQQYYEEPYTFGQGTRLEIK
notes: as for B2
B7: X21 (antibody, human IgG4, V domains shown)
VH: QVQLVQSGAEVKKPGSSVKVSCKASGYNFLHYDVNWVRQAPGQGLEWMGGIIPIFGTANYAQKFQGRVTITADESTSTAYMELSSLRSEDTAVYYCATGVGAGWFDPWGQGTLVTVSS
VL: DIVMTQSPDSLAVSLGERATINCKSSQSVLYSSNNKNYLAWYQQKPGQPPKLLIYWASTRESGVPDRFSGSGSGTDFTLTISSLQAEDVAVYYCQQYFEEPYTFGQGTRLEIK
B8: X22 (antibody, human IgG4, V domains shown)
VH: QVQLVQSGAEVKKPGSSVKVSCKASGYNFLHYDVNWVRQAPGQGLEWMGGIIPIFGTANYAQKFQGRVTITADESTSTAYMELSSLRSEDTAVYYCATGVGAGWFDPWGQGTLVTVSS
VL: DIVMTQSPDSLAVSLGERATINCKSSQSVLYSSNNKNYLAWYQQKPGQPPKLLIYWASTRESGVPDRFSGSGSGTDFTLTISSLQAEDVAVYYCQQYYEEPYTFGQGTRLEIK

Columns and labels:
[1] = biological target: T1, human PILRA G78 on HEK293F cells (human, UniProt Q9UKJ1 20-303); assay: FACS on HEK293F cells, binding on human PILRA (hA) over human PILRB (hB)
T1 construct: also called hA; G78 OE
T1 sequence (Q9UKJ1 20-303 R78G): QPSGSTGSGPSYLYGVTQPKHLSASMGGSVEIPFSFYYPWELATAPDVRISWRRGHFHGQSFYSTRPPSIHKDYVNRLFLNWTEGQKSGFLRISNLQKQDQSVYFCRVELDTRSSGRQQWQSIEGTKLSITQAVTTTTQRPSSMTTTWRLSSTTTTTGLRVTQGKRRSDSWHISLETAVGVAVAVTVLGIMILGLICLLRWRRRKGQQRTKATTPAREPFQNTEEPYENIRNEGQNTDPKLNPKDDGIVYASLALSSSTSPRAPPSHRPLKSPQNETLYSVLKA
Description: (§1) Conditioned media samples containing the tested anti-PILRA antibodies were assessed for binding to HEK293F cells overexpressing human PILRA (hA), human PILRB (hB), and cynomolgus PILRA (cA) by FACS. The conditioned media containing the tested antibodies were incubated with the cells for 30 min at 4° C., washed twice, and then detected with goat anti-human IgG secondary antibody (Alexa Fluor 647) at 1:1000 dilution. The cells were analyzed by flow cytometry on FACS Canto II, and for all cell lines, the reported MFI values were calculated for each conditioned media. These antibodies were evaluated for nonspecific binding using a baculovirus particle (BVP) assay (Jain T., Sun T., Durand S., Hall A., Houston N. R., Nett J. H., Sharkey B., Bobrowicz B., Caffry L, Yu Y., et al. Biophysical properties of the clinical-stage antibody landscape. Proc. Natl. Acad. Sci. USA. 2017; 114:944-949. Doi: 10.1073/pnas.1616408114.). The BVP scores are listed in Table 9, and the higher the score the more nonspecific binding that occurred.

[2] = biological target: cynomolgus PILRA on HEK293F cells (cynomolgus monkey, UniProt A0A7N9CRU1 20-292); assay: cA Kd of Table 9; method not stated (Example 8: HEK293F overexpressing cells, FACS)
cynomolgus PILRA on HEK293F cells, sequence (A0A7N9CRU1 entry or part of it): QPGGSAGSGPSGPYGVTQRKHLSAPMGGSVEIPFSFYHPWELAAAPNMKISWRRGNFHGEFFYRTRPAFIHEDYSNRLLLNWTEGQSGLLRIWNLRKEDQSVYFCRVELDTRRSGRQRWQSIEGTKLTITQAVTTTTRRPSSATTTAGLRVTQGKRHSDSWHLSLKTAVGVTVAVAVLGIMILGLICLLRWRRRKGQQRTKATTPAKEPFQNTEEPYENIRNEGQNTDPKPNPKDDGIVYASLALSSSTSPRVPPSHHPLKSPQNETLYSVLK

[3] = biological target: T1, human PILRA G78 on HEK293F cells; assay: flow cytometry; HEK293F cells overexpressing human PILRA, goat anti-human IgG Alexa Fluor 647
Description: as §1

recombinant human PILRA [4] = biological target: T2, recombinant human PILRA (human, UniProt Q9UKJ1 20-197); assay: SPR, Biacore T200, antibody captured by anti-Fab
T2 sequence (Q9UKJ1 20-197 limits assumed): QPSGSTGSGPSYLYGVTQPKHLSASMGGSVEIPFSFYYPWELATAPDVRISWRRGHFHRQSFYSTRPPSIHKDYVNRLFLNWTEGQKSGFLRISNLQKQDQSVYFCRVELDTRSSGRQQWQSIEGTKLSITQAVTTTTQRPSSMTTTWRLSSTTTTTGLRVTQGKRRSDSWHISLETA
Description: (§2) A subset of these antibodies was further evaluated using the Biacore T200 (Cytiva). Anti-PILRA antibodies were diluted to 10 μg/mL and captured using an anti-Fab (Cytiva, #28958325) surface on a CM4 chip, that was prepared by amine coupling according to the manufacturer's protocol. Human PILRA and cynomolgus PILRB were diluted in running buffer to 130 nM, and diluted 4-fold serially, twice, to 8 nM. Human PILRB was similarly diluted from 260 nM to 16 nM. These analytes were injected and allowed 2 minutes of association, followed by dissociation for 5 minutes.
(§3) Data were analyzed using Biacore evaluation software to generate kinetic constants. The equilibrium dissociation constants (KD) were calculated from the fitted association and dissociation rate constants (k-on and k-off) for each of the anti-PILRA antibodies. These Kn values are indicated with asterisks in Table 8 below.

[5] = biological target: T1, human PILRA G78 on HEK293F cells; assay: hA Kd of Table 9; method not stated (Example 8: HEK293F overexpressing cells, FACS)
recombinant human PILRB [6] = biological target: T3, recombinant human PILRB (human, UniProt Q9UKJ0 20-191); assay: SPR, Carterra LSA, steady-state fit
T3 sequence (Q9UKJ0 20-191 limits assumed): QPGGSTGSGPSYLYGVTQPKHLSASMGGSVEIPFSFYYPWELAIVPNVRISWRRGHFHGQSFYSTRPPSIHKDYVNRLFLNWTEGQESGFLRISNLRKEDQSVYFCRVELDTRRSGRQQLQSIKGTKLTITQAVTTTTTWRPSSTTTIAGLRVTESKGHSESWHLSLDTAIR
Description: (§4) Binding kinetics of human anti-PILRA-IgG4 antibodies were evaluated by surface plasmon resonance (SPR) using a Carterra LSA instrument (Carterra, Salt Lake City, UT). Antibodies were immobilized in duplicate arrays onto an HC30M sensor chip (Carterra) by amine coupling according to the manufacturer's protocol. After priming the immobilized antibodies with HBS-EP+ (Teknova, Hollister, CA, #8022) running buffer with 0.5 mg/mL BSA (MP Biomedicals LLC, #820451), the immobilized antibodies were tested for their ability to bind to recombinant human PILRA (SEQ ID NO:1) and cynomolgus PILRA (SEQ ID NO:120) and to human PILRB (SEQ ID NO:105) and cynomolgus PILRB (SEQ ID NO:121).
(§5) For binding kinetics analysis, human and cynomolgus PILRA and PILRB analytes were diluted in running buffer to 440 to 470 nM, and diluted 3-fold serially five times, to 1.8 to 1.9 nM, and injected for five minutes over the entire chip using the single channel flow cell to measure association of binding to the immobilized antibodies. Dissociation of the analytes was measured for five minutes, followed by regeneration of the chip with two 30-second injections of 10 mM glycine pH 2.0.
For the human PILRB interactions, the binding was too weak and heterogenous for kinetic constants to be calculated in this assay. Therefore, steady-state affinities were estimated based on the binding level of each analyte concentration at the end of the injections.

[7] = biological target: T4, cell surface PILRA on human monocytes (human, UniProt Q9UKJ1 20-303); assay: cell-based or functional assay
T4 sequence (Q9UKJ1 20-303): as the sequence (Q9UKJ1 20-303 R78G) above, with G59R counted along it

[8] = biological target: T5, recombinant cynomolgus PILRA (SEQ ID NO:120) (cynomolgus monkey); assay: SPR, Carterra LSA, antibody amine-coupled, kinetic fit
T5 construct: also called cyno PILRA
T5 sequence (chain, as listed by the source limits assumed): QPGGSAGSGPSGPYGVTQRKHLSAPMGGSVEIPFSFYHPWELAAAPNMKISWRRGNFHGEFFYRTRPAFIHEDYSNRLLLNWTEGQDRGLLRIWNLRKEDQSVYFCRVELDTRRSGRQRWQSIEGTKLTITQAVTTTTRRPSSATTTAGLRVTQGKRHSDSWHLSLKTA
Description: as §4, §5

recombinant human PILRA [9] = biological target: T2, recombinant human PILRA; assay: as above
Description: as §4, §5

[10] = biological target: T4, cell surface PILRA on human monocytes; assay: flow cytometry; Alexa Fluor 647-conjugated antibody on human CD14+ monocytes, Fc receptors blocked, 30 min on ice
Description: Anti-human PILRA antibodies X0 (PA-29) and its affinity matured variants were tested for their abilities to bind cell surface PILRA on human and cynomolgus monocytes. CD14+ monocytes were isolated from healthy human donors using a RosetteSep Human Monocyte Enrichment Cocktail kit (StemCell). Cynomolgus white blood cells were collected from cynomolgus whole blood. In both human and cynomolgus samples, the Fc receptor on the tested monocytes was blocked and the monocytes were treated with Alexa Fluor 647-conjugated PILRA antibodies for 30 minutes on ice. A dose response curve of antibodies X0 (PA-29), X1, X2, X7, X11, X12, X13, X14, X16, X18, and X20 was tested for binding to cell surface PILRA in human and cynomolgus monocytes, and antibodies bound to PILRA in a dose response manner. In another sample of human donor monocytes, a dose response curve of antibodies X0 (PA-29), X1, X2, X11, X13, X18, X29 (PA-43), and X34 (A6) was tested for binding to cell surface PILRA in human and cynomolgus monocytes, and antibodies bound to PILRA in a dose response manner.

[11] = biological target: T1, human PILRA G78 on HEK293F cells; assay: flow cytometry blocking assay; antibody on HEK293F cells overexpressing human PILRA G78, then 5 ug/mL NPDC1 Fc as the blocked ligand; cell-bound NPDC1 Fc read as MFI
Description: A dose response curve of antibodies X0 (PA-29), X1, X2, X7, X11, X12, X13, X14, X16, X18, and X20 was assessed for modulating the binding of Neural Proliferation Differentiation and Control Protein 1 (NPDC1) Fc to 293 cells ectopically expressing human PILRA (HEK293F human PILRA G78 overexpressing cells). Conditioned media samples containing antibodies were incubated with human PILRA overexpressing cells for 30 minutes at 4° C., and then 5 μg/mL NPDC1 Fc was added to this mixture. After 30 minutes of incubation at 4° C., the cells were washed and cell-bound NPDC1 Fc was detected with anti-human IgG Alexa Fluor 647. The cells were analyzed by flow cytometry on FACS Canto II with the percentage of NPDC1 Fc binding in the presence of conditioned media relative to NPDC1 Fc binding alone was calculated. […] All tested antibodies decreased binding of NPDC1 to human PILRA.

recombinant human PILRB [12] = biological target: T3, recombinant human PILRB; assay: SPR, Biacore T200, antibody captured by anti-Fab
Description: as §2, §3

[13] = biological target: T6, human PILRB on HEK293F cells (human, UniProt Q9UKJ0 20-227); assay: hB Kd of Table 9; method not stated (Example 8: HEK293F overexpressing cells, FACS)
T6 construct: also called hB
T6 sequence (Q9UKJ0 20-227): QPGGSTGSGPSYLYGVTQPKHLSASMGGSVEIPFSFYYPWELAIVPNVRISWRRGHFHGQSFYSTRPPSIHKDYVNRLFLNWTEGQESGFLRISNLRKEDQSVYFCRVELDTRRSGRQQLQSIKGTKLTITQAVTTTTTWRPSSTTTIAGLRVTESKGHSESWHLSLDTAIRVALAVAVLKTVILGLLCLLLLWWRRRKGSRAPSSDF

| Binder | hA/hB binding ratio on HEK293F [1] | Kd [2] | EC50 (read off the curve) [3] | Kd (recombinant human PILRA [4]) | Kd [5] | binding result (recombinant human PILRB [6]) | Hu Mono DR EC50 [7] | Kd [8] | Kd (recombinant human PILRA [9]) | EC50 (read off the curve) [10] | IC50 (read off the curve) [11] | Kd (recombinant human PILRB [6]) | Kd (recombinant human PILRB [12]) | Kd [13] |
| --- | --- | --- | --- | --- | --- | --- | --- | --- | --- | --- | --- | --- | --- | --- |
| B1 | 108 | 192 nM | ~0.3 µg/mL | 294 nM | 78.7 nM | no binding | 0.7 µg/mL | 17 nM | 233 nM | – | – | – | – | – |
| B2 | 63 | 2 nM | – | – | 1.2 nM | – | 0.9 µg/mL | 0.4 nM | 3.8 nM | ~0.2 µg/mL | ~0.08 µg/mL | 77 nM | – | – |
| B3 | 14.4 | 0.3 nM | – | 0.3 nM | 0.1 nM | – | ~0.02 µg/mL | 0.2 nM | 1 nM | ~0.1 µg/mL | ~0.08 µg/mL | 12 nM | 28 nM | 36.7 nM |
| B4 | 7.9 | 0.3 nM | – | – | 0.1 nM | – | ~0.02 µg/mL | 0.1 nM | 1.1 nM | ~0.1 µg/mL | ~0.02 µg/mL | 4 nM | – | 6.6 nM |
| B5 | 6.1 | – | – | – | – | – | 0.005 µg/mL | 0.1 nM | 0.5 nM | – | – | 2 nM | – | – |
| B6 | 6.7 | – | – | – | – | – | ~0.02 µg/mL | 0.1 nM | 0.5 nM | – | – | 2 nM | – | – |
| B7 | – | – | – | 1.9 nM | – | – | – | 0.1 nM | 1.8 nM | – | – | 43 nM | – | – |
| B8 | – | – | – | 6.2 nM | – | – | – | 0.2 nM | 2.2 nM | – | – | 54 nM | 14 nM | – |
